Patent publication US20230312755A1 (ANGITIA, published 2023)

How the values were obtained:
human Sclerostin [1] = target: T1, human Sclerostin (human, UniProt Q9BQB4 24-213); test: BLI (Gator), antibody on anti-hFc biosensor, antigen as analyte; koff at LOD, KD estimated
T1 construct: Analyte of the BLI assays and the protein added in the reporter assays; also called hSclerostin; SOST
T1 sequence: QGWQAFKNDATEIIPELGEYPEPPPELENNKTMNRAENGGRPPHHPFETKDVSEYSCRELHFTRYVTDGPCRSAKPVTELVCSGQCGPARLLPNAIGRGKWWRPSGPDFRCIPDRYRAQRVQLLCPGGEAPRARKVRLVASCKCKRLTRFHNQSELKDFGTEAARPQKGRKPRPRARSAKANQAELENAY
Protocol: (§1) Binding kinetics and affinities of anti-Sclerostin×anti-DKK1 and anti-Sclerostin×anti-RANKL bispecific antibodies were measured with Gator (Probe Life) bio-layer interferometry (BLI). Antibodies were immobilized on an anti-hFc biosensor, using a 5 μg/ml solution. Serial dilutions of sclerostin (from 1 μg/ml), DKK1 (from 2 μg/ml), or RANKL (from 4 μg/ml) by two folds in kinetics buffer (PBS, pH 7.4, 0.05% Tween-20, 0.2% BSA) were used as the analytes. Affinity (KD) and kinetic parameters (Kₒₙ and Koff) were calculated from a global fit (1:1) of the data using the Gator software.

human RANKL [2] = target: T2, human RANKL (human, UniProt O14788 140-317, limits assumed); test: as above
T2 construct: Analyte in BLI; also called hRANKL; TNFSF11
T2 sequence (looked up): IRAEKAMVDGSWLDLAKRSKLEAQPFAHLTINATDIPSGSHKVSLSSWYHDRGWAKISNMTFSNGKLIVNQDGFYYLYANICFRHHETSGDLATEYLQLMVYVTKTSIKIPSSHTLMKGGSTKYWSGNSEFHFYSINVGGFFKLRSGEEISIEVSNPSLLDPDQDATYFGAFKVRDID
Protocol: as §1

human Sclerostin [3] = target: T1, human Sclerostin; test: BLI (Gator), antibody on anti-hFc biosensor, antigen as analyte, 1:1 global fit
Protocol: as §1

human RANKL [4] = target: T2, human RANKL; test: as above
Protocol: as §1

- Kd (human Sclerostin [1]): ~0.01 nM
- Kd (human RANKL [2]): ~0.01 nM
- kon (human Sclerostin [3]): 757000 M⁻¹ s⁻¹
- kon (human RANKL [4]): 86700 M⁻¹ s⁻¹
B1: BAP0069 (bispecific antibody, human IgG4 S228P, kappa, F234A L235A)
heavy: EVQLVQSGAEVKKPGASVKVSCKASGYTFTDYEIHWVRQAPGKGLEWMGAIDPETGGTAYNQKFKGRVTMTTDTSTSTAYMELRSLRSDDTAVYYCYSYDYVTYWGQGTTVTVSSASTKGPSVFPLAPCSRSTSESTAALGCLVKDYFPEPVTVSWNSGALTSGVHTFPAVLQSSGLYSLSSVVTVPSSSLGTKTYTCNVDHKPSNTKVDKRVESKYGPPCPPCPAPEAAGGPSVFLFPPKPKDTLMISRTPEVTCVVVDVSQEDPEVQFNWYVDGVEVHNAKTKPREEQFNSTYRVVSVLTVLHQDWLNGKEYKCKVSNKGLPSSIEKTISKAKGQPREPQVYTLPPSQEEMTKNQVSLTCLVKGFYPSDIAVEWESNGQPENNYKTTPPVLDSDGSFFLYSKLTVDKSRWQEGNVFSCSVMHEALHNHYTQKSLSLSPGKGGGGSGGGGSGGGGSEIVLTQSPGTLSLSPGERATLSCRASQSVRGRYLAWYQQKPGQAPRLLIYGASSRATGIPDRFSGSGSGTDFTLTISRLEPEDFAVFYCQQYGSSPRTFGCGTKVEIKGGGGSGGGGSGGGGSGGGGSEVQLLESGGGLVQPGGSLRLSCAASGFTFSSYAMSWVRQAPGKCLEWVSGITGSGGSTYYADSVKGRFTISRDNSKNTLYLQMNSLRAEDTAVYYCAKDPGTTVIMSWFDPWGQGTLVTVSA
light: DVVMTQSPLSLSVSPGERASLSCKSSQSLLYSDGRTYLNWYLQKPGQSPQRLIYLVSKLDSGVPDRFSGSGSGTDFTLKISRVQSEDVGVYYCWQGTHLPHTFGGGTKVEIKRTVAAPSVFIFPPSDEQLKSGTASVVCLLNNFYPREAKVQWKVDNALQSGNSQESVTEQDSKDSTYSLSSTLTLSKADYEKHKVYACEVTHQGLSSPVTKSFNRGEC
notes: Anti-RANKL scFv (VL-VH, Denosumab) fused to the C-terminus of the heavy chains of the anti-Sclerostin full length antibody (hAb-1)
